# Residue numbers refer to the chain shown, from its start.
# T1: PD-1 M14
# T1 PD-1 mutant: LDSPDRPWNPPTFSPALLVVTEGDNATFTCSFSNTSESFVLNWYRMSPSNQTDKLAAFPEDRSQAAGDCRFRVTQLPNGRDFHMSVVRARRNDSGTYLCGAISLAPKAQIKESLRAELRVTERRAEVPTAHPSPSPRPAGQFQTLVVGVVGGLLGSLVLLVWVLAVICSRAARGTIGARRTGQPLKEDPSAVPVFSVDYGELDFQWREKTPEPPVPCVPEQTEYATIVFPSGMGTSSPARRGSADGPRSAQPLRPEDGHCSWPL
# T2: monkey Fc-PD-1 protein (monkey, UniProt Q15116 25-170 (human entry))
# T2 construct: not shown: Fc part not described
# T2 chain: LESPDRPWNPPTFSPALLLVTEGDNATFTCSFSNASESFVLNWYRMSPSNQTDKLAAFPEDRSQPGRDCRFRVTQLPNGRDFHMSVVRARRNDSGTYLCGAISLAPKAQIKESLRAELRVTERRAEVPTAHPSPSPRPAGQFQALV
# B1: 137F2 (antibody, V domains shown)
# VH: QVQLQQPGAELVRPGTSVKMSCKAAGYTFTNYWIGWIKQRPGHGLEWIGDIYPGGGYTNYNEKFKGKATLTADTSSSTAYMQVSSLTSEDTGIYYCARGYDFVLDRWGQGTSVTVSS
# VL: DIVMSQSPSSLAVSTGEKVTMTCKSSQSLFNSETQKNYLAWYQQKPGQPPKLLIFWASTRESGVPDRFLGSGSGTDFTLTISSVQAEDLAVYYCKQSYTLRTFGGGTKLEIK
# notes: also called mouse 137F2A11
# B2: A35775 (Fab, V domains shown)
# VH: EVQLVQSGAEVKKPGESLKISCKGSGYSFTNFYIHWVRQAPGQRLEWMGSIYPNYGDTAYNQKFKDRFVFSLDTSVSTAYLQISSLKAEDTAVYYCARGYSYAMDYWGQGTTVTVSS
# VL: DIQMTQSPSSVSASVGDRVTITCSASQGISGDLNWYQQKPGQAPRLLIYHTSSLHSGVPSRFSGSGSGTDFTLTISSLQPEDFATYYCQYYSKDLLTFGGGTKLEIK
# notes: humanized Fab clone of 135C12; also called humanized antibody A35775
# B3: A35783 (Fab, V domains shown)
# VH: B2 VH with P41R, M48I
# VL: B2 VL with V11L, Q42K, A43T, R45K
# notes: humanized Fab clone of 135C12; also called humanized antibody A35783
# B4: A35774 (Fab, V domains shown)
# VH: B2 VH
# VL: B2 VL with Q42K, R45K
# notes: humanized Fab clone of 135C12; also called humanized antibody A35774
# B5: A36437 (Fab, V domains shown)
# VH: B2 VH with A40M, Q43K, R44G
# VL: B2 VL with S10T, V11L, V58I, S60A, T85V
# notes: humanized Fab clone of 135C12; also called humanized antibody A36437
# B6: A36443 (Fab, V domains shown)
# VH: EVQLVQSGAEVKKPGATVKISCKVSGYTFTNFYIHWVRQARGQRLEWIGSIYPNYGDTAYNQKFKDRVTITADKSTSTAYMELSSLRSEDTAVYYCARGYSYAMDYWGQGTTVTVSS
# VL: B2 VL with D70E, S77R, Q79E, T85V
# notes: humanized Fab clone of 135C12; also called humanized antibody A36443
# B7: A35777 (Fab, V domains shown)
# VH: B6 VH with R41P, Q43K, R44G, I48M
# VL: B2 VL with S10T, V11L
# notes: humanized Fab clone of 135C12; also called humanized antibody A35777
# B8: A35789 (Fab, V domains shown)
# VH: B6 VH with A16E, T17S, V18L, V24G, T28S, A40M, R41P, Q43K, R44G, I48M
# VL: B2 VL with V58I, S60A, S77R, Q79E, T85V
# notes: humanized Fab clone of 135C12; also called humanized antibody A35789
# B9: A35796 (Fab, V domains shown)
# VH: QMQLVQSGPEVKKPGTSVKVSCKASGFTFTNYWIGWVRQAPGQALEWMGDIYPGGGYTNYNEKFKGRVTITADKSTSTAYMELSSLRSEDTAVYYCARGYDFVLDRWGQGTTVTVSS
# VL: DVVMTQSPAFLSVTPGEKVTITCKSSQSLFNSETQKNYLAWYQQKPGQPPKLLIYWASTRESGVPSRFSGSGSGTDFTLTISSLQPEDFATYYCKQSYTLRTFGGGTKLEIK
# notes: humanized Fab clone of 137F2; also called humanized antibody A35796
# B10: A35793 (Fab, V domains shown)
# VH: B9 VH
# VL: B9 VL with L79F, Q85E, P86A, F89A
# notes: humanized Fab clone of 137F2; also called humanized antibody A35793
# B11: A35795 (Fab, V domains shown)
# VH: B9 VH with M2V, P9A, T16A, F27Y, A44G
# VL: B9 VL with P49A, K51R
# notes: humanized Fab clone of 137F2; also called humanized antibody A35795
# B12: A35799 (Fab, V domains shown)
# VH: B9 VH with P9A, P14T, T16S, F27Y, A40M, Q43K, A44G
# VL: B9 VL
# notes: humanized Fab clone of 137F2; also called humanized antibody A35799
# B13: A35805 (Fab, V domains shown)
# VH: B9 VH with M2V, P9S, V11L, T16A, F27Y, Q43K, A44G
# VL: B9 VL with L79F, Q85E, P86A, F89A
# notes: humanized Fab clone of 137F2; also called humanized antibody A35805
# B14: A35818 (Fab, V domains shown)
# VH: B9 VH
# VL: B9 VL with P49A, K51R, L79F, Q85E, P86A, F89A
# notes: humanized Fab clone of 137F2; also called humanized antibody A35818
# B15: A35797 (Fab, V domains shown)
# VH: EVQLVQSGAEVKKHGESLKISCKGSGYSFTNYWIGWVRQATGQGLEWMGDIYPGGGYTNYNEKFKGRVTITADKSTSTAYMELSSLRSEDTAVYYCARGYDFVLDRWGQGTTVTVSS
# VL: B9 VL with V2I, V3Q, A9S, F10S, V13A, T14S, P15V, E17D, K18R
# notes: humanized Fab clone of 137F2; also called humanized antibody A35797
# B16: A36448 (Fab, V domains shown)
# VH: B2 VH with A40M, Q43K, R44G
# VL: B2 VL with S10T, V11L, Q42K, A43T, R45K
# notes: humanized Fab clone of 135C12; also called humanized antibody A36448
# Molecular target: T1, PD-1 M14
# Assay: flow cytometry, HeLa cells transiently transfected with PD-1 M14, PE-labeled anti-mouse IgG secondary Ab
row,Binder,binding result
1,B1,binds

# Molecular target: T2, monkey Fc-PD-1 protein
# Assay: Biacore, Fab, monkey Fc-PD-1
Binder,Kd,koff,kon
B2,5.73 nM,0.000347 s⁻¹,60500 M⁻¹ s⁻¹
B3,1.9 nM,0.0008 s⁻¹,421000 M⁻¹ s⁻¹
B4,2.79 nM,0.000194 s⁻¹,69300 M⁻¹ s⁻¹
B5,6.07 nM,0.000368 s⁻¹,60700 M⁻¹ s⁻¹
B6,6.16 nM,0.000585 s⁻¹,94900 M⁻¹ s⁻¹
B7,5 nM,0.000575 s⁻¹,115000 M⁻¹ s⁻¹
B8,6.19 nM,0.000413 s⁻¹,66700 M⁻¹ s⁻¹

# Molecular target: T2, monkey Fc-PD-1 protein
# Assay: Biacore, Fab, monkey Fc-PD-1
# Remark: another data set of the same source
Binder,Kd,koff,kon
B9,1.03 nM,9.81e-05 s⁻¹,95300 M⁻¹ s⁻¹
B10,1.13 nM,0.000105 s⁻¹,93200 M⁻¹ s⁻¹
B11,1.64 nM,0.000152 s⁻¹,92500 M⁻¹ s⁻¹
B12,1.88 nM,0.000169 s⁻¹,89700 M⁻¹ s⁻¹
B13,1.08 nM,9.49e-05 s⁻¹,88200 M⁻¹ s⁻¹
B14,1.27 nM,0.000116 s⁻¹,91400 M⁻¹ s⁻¹
B15,1.13 nM,0.000106 s⁻¹,93700 M⁻¹ s⁻¹

# Molecular target: T2, monkey Fc-PD-1 protein
# Assay: Biacore, monkey Fc-PD-1
Binder,Kd,koff,kon
B1,2.22 nM,0.000305 s⁻¹,138000 M⁻¹ s⁻¹

# Molecular target: T3, recombinant human Fc-PD-1 protein (human, UniProt Q15116 25-170)
# T3 construct: may be the same protein as the PD-1 Fc fusion of the Luminex assays; also called recombinant human PD-1 in an Fc fusion construct; not shown: Fc part not described
# T3 sequence (Q15116 25-170): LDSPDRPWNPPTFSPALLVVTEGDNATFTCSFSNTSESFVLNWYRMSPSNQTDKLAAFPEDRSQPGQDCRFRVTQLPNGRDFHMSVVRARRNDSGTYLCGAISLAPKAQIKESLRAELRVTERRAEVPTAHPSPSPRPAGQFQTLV
# Assay: Biacore, Fab, human Fc-PD-1
Binder,Kd,koff,kon
B9,1.18 nM,0.000123 s⁻¹,104000 M⁻¹ s⁻¹
B10,0.912 nM,9.49e-05 s⁻¹,104000 M⁻¹ s⁻¹
B11,0.797 nM,8.24e-05 s⁻¹,103000 M⁻¹ s⁻¹
B12,0.734 nM,7.43e-05 s⁻¹,101000 M⁻¹ s⁻¹
B13,0.937 nM,8.78e-05 s⁻¹,93700 M⁻¹ s⁻¹
B14,1.06 nM,0.000104 s⁻¹,98800 M⁻¹ s⁻¹
B15,0.802 nM,8.02e-05 s⁻¹,100000 M⁻¹ s⁻¹

# Molecular target: T3, recombinant human Fc-PD-1 protein
# Assay: Biacore, Fab, human Fc-PD-1
# Remark: another data set of the same source
Binder,Kd,koff,kon
B2,2.54 nM,0.000203 s⁻¹,80200 M⁻¹ s⁻¹
B3,2.55 nM,0.000196 s⁻¹,76800 M⁻¹ s⁻¹
B4,2.61 nM,0.000211 s⁻¹,80900 M⁻¹ s⁻¹
B5,4.46 nM,0.000317 s⁻¹,71000 M⁻¹ s⁻¹
B16,4.31 nM,0.000386 s⁻¹,89600 M⁻¹ s⁻¹
B6,3.02 nM,0.000215 s⁻¹,71200 M⁻¹ s⁻¹
B7,5.13 nM,0.000352 s⁻¹,68600 M⁻¹ s⁻¹
B8,4.17 nM,0.000293 s⁻¹,70100 M⁻¹ s⁻¹

# Reference: US20220259315A1 (MABQUEST, published 2022)
